Results reported in paper PMC12678272.

Columns and labels:
[1] = target: GST-RILP-L1 (RILP-Like 1, mouse) (mouse) (UniProt Q9JJC6); assay: pull-down; 20 ug GST fusion protein immobilised on glutathione agarose beads, incubated 18 h at 4 C with 500 ug RAW264.7 macrophage lysate (untreated or treated with GSK2578215A); 50 mM HEPES pH 7.4, 150 mM NaCl, 1 mM MgCl2, 1% Triton X-100, phosphatase inhibitors; immunoblot, quantified as percent of total input
[2] = target: GST-RILP-L2 (RILP-Like 2, mouse) (mouse) (UniProt Q99LE1); assay: as above
Chain of UniProt Q99LE1 (Q99LE1 whole entry, the tested form may be a part): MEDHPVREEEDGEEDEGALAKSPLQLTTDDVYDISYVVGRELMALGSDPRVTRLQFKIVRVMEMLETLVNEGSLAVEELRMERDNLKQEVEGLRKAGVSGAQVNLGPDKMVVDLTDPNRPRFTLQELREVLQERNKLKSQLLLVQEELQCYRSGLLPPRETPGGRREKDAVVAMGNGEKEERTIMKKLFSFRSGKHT

[3] = target: GST-RILP-L1 (RILP-Like 1, mouse) (mouse) (UniProt Q9JJC6); assay: pull-down; 20 ug GST fusion protein immobilised on glutathione agarose beads, incubated 18 h at 4 C with 500 ug RBL cell lysate (untreated, Ion/TPA-activated, or Ion/TPA with LY333531); 50 mM HEPES pH 7.4, 150 mM NaCl, 1 mM MgCl2, 1% Triton X-100, phosphatase inhibitors; immunoblot, quantified as percent of total input
[4] = target: GST-RILP-L2 (RILP-Like 2, mouse) (mouse) (UniProt Q99LE1); assay: as above

Chain of UniProt Q9JJC6 (Q9JJC6 whole entry, the tested form may be a part): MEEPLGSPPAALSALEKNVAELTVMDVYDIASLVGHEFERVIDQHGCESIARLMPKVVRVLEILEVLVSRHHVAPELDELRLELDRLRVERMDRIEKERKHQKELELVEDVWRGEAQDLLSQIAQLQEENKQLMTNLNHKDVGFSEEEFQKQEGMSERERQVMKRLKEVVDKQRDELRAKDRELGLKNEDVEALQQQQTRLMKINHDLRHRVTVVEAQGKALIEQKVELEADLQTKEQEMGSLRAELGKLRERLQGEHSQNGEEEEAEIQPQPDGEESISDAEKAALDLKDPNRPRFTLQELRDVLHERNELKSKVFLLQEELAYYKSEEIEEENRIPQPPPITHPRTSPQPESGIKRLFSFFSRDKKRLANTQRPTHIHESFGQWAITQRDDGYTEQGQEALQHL

Rab12 (endogenous, RAW264.7 macrophages) (from UniProt P35283 1-291) (natural protein)
percent reduction of pull-down after GSK2578215A, against untreated cells [1]: 50%
percent reduction of pull-down after GSK2578215A, against untreated cells [2]: 80%

Rab12 (endogenous, RBL-2H3 cells) (from UniProt P35284 1-291) (natural protein)
percent of total input pulled down [3]: 14%
percent reduction of pull-down after LY333531, against Ion/TPA alone [3]: 60%
percent of total input pulled down [4]: 4%
percent reduction of pull-down after LY333531, against Ion/TPA alone [4]: 90%

phosphoRab12 (endogenous, Ion/TPA-activated RBL-2H3 cells) (from UniProt P35284 1-291) (natural protein)
percent of total input pulled down [3]: 38%
percent of total input pulled down [4]: 18%
